The record followed here is patent US20170233490A1 (Hoffmann-La Roche, published 2017).

Test [1] concerns the target T1, human HER4 Extracellular Domain (ECD) (human, UniProt Q15303 26-651).
T1 construct: also called Her4 ECD; HER4-ECD
T1 sequence: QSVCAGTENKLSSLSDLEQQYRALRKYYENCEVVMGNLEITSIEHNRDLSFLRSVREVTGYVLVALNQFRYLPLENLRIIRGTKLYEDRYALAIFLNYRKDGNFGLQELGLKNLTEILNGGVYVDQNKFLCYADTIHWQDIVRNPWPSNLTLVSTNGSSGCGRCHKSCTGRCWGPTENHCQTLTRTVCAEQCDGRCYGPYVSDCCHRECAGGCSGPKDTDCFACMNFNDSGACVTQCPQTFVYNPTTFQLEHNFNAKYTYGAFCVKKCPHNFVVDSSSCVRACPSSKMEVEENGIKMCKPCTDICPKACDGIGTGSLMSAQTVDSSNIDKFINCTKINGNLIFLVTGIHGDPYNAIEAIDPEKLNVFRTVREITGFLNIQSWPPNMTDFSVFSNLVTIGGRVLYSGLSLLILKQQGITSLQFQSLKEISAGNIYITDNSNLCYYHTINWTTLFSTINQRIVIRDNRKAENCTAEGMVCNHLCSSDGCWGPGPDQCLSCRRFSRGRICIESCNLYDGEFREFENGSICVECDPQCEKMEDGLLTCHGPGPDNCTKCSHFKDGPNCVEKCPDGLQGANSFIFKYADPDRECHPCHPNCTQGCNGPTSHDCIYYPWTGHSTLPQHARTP
Nature of the test: stated in the epitope binning example.

Test [2] concerns the target T2, HER3 ECD-HRG complex (human, UniProt P21860 20-643).
T2 construct: HER3 ECD preincubated with a 3- to 6-fold molar excess of Heregulin ('open' conformation); biotinylated Her3-ECD in the ribosome display; also called HER3-ECD/HRG1β
Nature of the test: SPR (Biacore B3000, 25 °C), antibody captured by RAM-Fcγ; 90 nM Heregulin*Her-3 ECD complex injected. As for the experimental part: A CMS series sensor was mounted into the system and was normalized in HBS-ET buffer (10 mM HEPES pH 7.4, 150 mM NaCl, 3 mM EDTA, 0.005% w/v Tween 20) according to the manufacturer's instructions. The sample buffer was the system buffer supplemented with 1 mg/ml CMD (Carboxymethyldextran). The system operated at 25° C. 10000 RU RAM-Fcγ (relative units of Fcγ-fragment Rabbit Anti-Mouse IgG/Jackson Laboratories) were immobilized according to the manufacturer's instructions using EDC/NHS chemistry on all flow cells. The sensor was deactivated using 1M ethanolamine. Analytes in solution were injected at 100 μl/min at different concentration steps of 0 nM, 1.1 nM, 3.7 nM, 11.1 nM, 33.1 nM and 90 nM for 2 min. The dissociation was monitored for 5 min. Acidic regeneration of the sensor surface was achieved using three consecutive injections of 10 mM Glycine pH 1.7 at 30 μl/min for 60 sec. Kinetic data were evaluated according to a Langmuir fit.
In general terms: In SPR one partner is held on a chip, and binding of the other changes the refractive index at the surface.

Test [3] has as its target T3, human HER3 Extracellular Domain (ECD) (human, UniProt P21860 20-643).
T3 construct: human recombinant, 68 kDa; 'closed' conformation without ligand; also called Her3 ECD; Her-3 ECD
The test can be described thus: SPR (Biacore) sensorgram overlay; the legend gives 100 nM, antibody * Her-3 ECD interaction without Heregulin; buffer reference (curve 5) stays at 0 RU.

Test [4] has as its target T1, human HER4 Extracellular Domain (ECD). The test can be described thus: SPR Biacore 3000, 37 C.
The target in the next test is T4, HER4 ECD-HRG complex (human, UniProt Q15303 26-651).
T4 construct: HER4 ECD preincubated with a 5-fold molar excess of Heregulin
T4 sequence 1: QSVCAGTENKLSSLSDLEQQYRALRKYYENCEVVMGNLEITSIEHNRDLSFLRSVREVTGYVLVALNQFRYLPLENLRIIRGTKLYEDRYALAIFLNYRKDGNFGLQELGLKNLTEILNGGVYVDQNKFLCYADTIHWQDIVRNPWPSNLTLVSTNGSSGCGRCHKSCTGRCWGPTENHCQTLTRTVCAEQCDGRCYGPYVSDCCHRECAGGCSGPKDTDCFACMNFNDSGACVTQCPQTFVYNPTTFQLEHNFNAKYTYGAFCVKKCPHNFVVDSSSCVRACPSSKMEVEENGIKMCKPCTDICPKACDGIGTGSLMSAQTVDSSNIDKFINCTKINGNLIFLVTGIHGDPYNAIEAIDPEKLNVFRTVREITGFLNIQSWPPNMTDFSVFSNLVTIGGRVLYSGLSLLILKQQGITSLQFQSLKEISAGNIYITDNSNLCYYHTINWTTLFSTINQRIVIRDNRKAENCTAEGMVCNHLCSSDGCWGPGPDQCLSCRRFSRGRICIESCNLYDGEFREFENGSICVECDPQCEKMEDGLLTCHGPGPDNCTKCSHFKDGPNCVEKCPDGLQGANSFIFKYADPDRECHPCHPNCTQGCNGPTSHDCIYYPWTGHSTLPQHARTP
T4 sequence 2: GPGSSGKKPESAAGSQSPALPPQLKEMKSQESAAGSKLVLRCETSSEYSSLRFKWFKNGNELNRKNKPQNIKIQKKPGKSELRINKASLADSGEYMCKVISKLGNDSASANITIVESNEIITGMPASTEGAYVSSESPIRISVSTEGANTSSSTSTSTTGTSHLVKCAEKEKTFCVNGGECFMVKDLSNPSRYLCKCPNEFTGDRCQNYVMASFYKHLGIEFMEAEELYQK
The test can be described thus: SPR Biacore 3000, 37 C.

Test [5] has as its target T3, human HER3 Extracellular Domain (ECD). Nature of the test: SPR Biacore 3000, 37 C.
The target of test [6] is T2, HER3 ECD-HRG complex. Nature of the test: SPR Biacore 3000, 37 C.

For orientation: Kd means the constant that tells how readily two partners part at equilibrium. A low value points to a tighter complex. As a reminder, the koff is a measure of how fast the partners let go of each other. The low end stands for slow dissociation, the high end for fast dissociation. A word on the kon: it is the rate constant with which the complex forms. Low values mean slow association, high ones fast association.

B1: anti-HER3 antibody M-08-11 (antibody, V domains shown)
VH: QAYLQQSGAELMRPGASVRMSCQASGYTFTSYTIHWLKQTPRQGLEWIGAIYPRNGDFSYNQKFKDKASLTVDTSSSTAYMHLSSLTSEDSAVYFCARTINYGDWFAYWGQGTLVTVSA
VL: DIQMIQSPASLFVSEGETVIITCRASENIYSNLAWYHQKKGKSPQVLVYAAIKLADGVPLRFSGSGSGTQFSLKINSLQSEDFGSYYCQHFWGPPYTFGSGTNLEIK
notes: also called M-011; <Her3> M-08-11
Consider B1, for which the figures for the binding result (in test [1]; with HER3 ECD-HRG complex [2]; in test [3]) were “no binding”, “binds” and “binds”, respectively.

B2: humanized variant VH-A/VL-D of anti-HER3 antibody M-05-74 (antibody, V domains shown)
VH: QVQLVQSGAELKKPGASVKVSCRTSGYTLTDYWIHWVRQAPGQGLEWMGYINPYTGYTESNQKFKDRVAMTRDASINTAYMELTSLRSDDTAVYYCARPYYYGDYWGQGTLVTVSS
VL: EIVLTQSPATLSLSPGERATLSCSASSSVSYMHWFQQKPGQPPRLLIYSTSNLASGIPARFSGSGSGTDFTLTISSLEPEDFAVYYCQQRSSYPFTFGGGTKVEIK
notes: also called humanized DIB-74
For B2, the binding result in test [4] is listed as “no binding”. Besides, in the test with HER4 ECD-HRG complex, binding was put at a Kd of 211 nM, the MR amounted to 0.8, the koff was 0.038 s⁻¹ and the kon worked out at 180000 M⁻¹ s⁻¹. The t/2diss with HER4 ECD-HRG complex came to 0.3 min. In test [5], this molecule had a dissociation constant (Kd) of 23 nM, an MR of 0.7, an off-rate constant (koff) of 0.00044 s⁻¹ and an association rate constant (kon) of 19000 M⁻¹ s⁻¹. Moreover, in test [5], the t/2diss turned out to be 26 min. Besides, in the test with HER3 ECD-HRG complex [6], the Kd amounted to 10 nM, the MR came out at 0.8, the off-rate (koff) came to 0.002 s⁻¹ and the kon came to 190000 M⁻¹ s⁻¹. In the test with HER3 ECD-HRG complex [6], this molecule returned a t/2diss of 6 min.
